{"source": "patent US12723255B2", "about": "“Herbicide tolerance genes and methods of use thereof” (priority 2014, dated 2026)", "key": {"[1]": {"experiment": "enzyme activity assay at 23° C. with purified enzyme", "assay_type": "biochemical", "conditions": "percentage of wild-type RdpA, set at 100%", "experimental": "The enzyme activity of MON-HT protein variants with triclopyr, fluroxypyr, MCPA, MCPB, mecoprop, as substrates was determined using the enzyme activity assay conducted at 23° C. with purified enzyme. The activity was recorded as the maximum activity as a percentage of the wild-type RdpA enzyme's activity, which was set at 100%. […] The enzymatic activity with mecoprop as a substrate was reduced for each of the MON-HT1, MON-HT13, MON-HT15, and MON-HT17 variants compared to the wild-type RdpA enzyme. An unexpected result was that enzymatic activity with MCPA as a substrate was roughly 6-fold greater for MON-HT1, and approximately 10-fold greater for MON-HT13, MON-HT15, and MON-HT17 compared to the wild-type RdpA enzyme."}, "[2]": {"assay_type": "biochemical", "conditions": "substrate quizalofop-P", "experimental": "To analyze these engineered proteins for activity in higher temperatures, the in vitro enzyme assay in Example 1 was modified to specify pre-heating all of the assay components to the desired temperature for 5 minutes before combining the components and then maintaining the reaction at the desired temperature for the duration of the reaction. To normalize the assay measurements, quizalofop-P was used as the substrate for the reaction and enzyme activity was normalized based on the 25° C. readings. Using these parameters, the temperature at which the enzyme activity was half of maximum (T1/2) was calculated. The T1/2 for MON-HT55 was calculated to be 29° C., and the T1/2 for wild-type RdpA was calculated to be 38° C. (FIG. 2A).\nEnzyme activity over a range of temperatures was analyzed in-depth for MON-HT1, MON-HT2, MON-HT7, and MON-HT8. These assays were conducted as described above. Quizalofop-P or 2,4-D was used as the substrate for these reactions and activity was normalized based on the activity of the wild-type enzyme at 25° C. The activity curves obtained are presented in FIG. 2B (with quizalofop-P as the substrate) and FIG. 2C (with 2,4-D as the substrate). Using quizalofop-P as the substrate, MON-HT55 was the most temperature sensitive, with a T1/2 of 29° C. […] MON-HTI was slightly less temperature sensitive, with a T1/2 about 1° C. higher than the wild-type enzyme."}, "[3]": {"experiment": "kinetic analysis, non-endpoint assay at 23° C.", "assay_type": "biochemical", "description": "For the fifth screen, recombinant protein for each of the eleven engineered proteins was produced and purified for an in-depth biochemical analysis. This biochemical analysis included: (1) kinetic analysis (Vmax and Km), (2) activity assays over a range of temperatures, (3) protein melting analysis, (4) activity on additional AOPP herbicides substrates, and (5) mass spectrometry analysis on peptides to confirm identity. The biochemical analyses were also done with purified recombinant wild-type protein and MON-HT55 protein for comparison. For the kinetic analysis, a non-endpoint assay was conducted at 23° C. with either quizalofop-P or 2,4-D as substrate. The recombinant proteins for these assays were produced in bacteria and purified using a 6-His tag fused at the C-terminal end of the protein. Results of the kinetic analysis with either quizalofop-P or 2,4-D as substrate are presented for ten of the engineered proteins, wild-type protein, and MON-HT55 protein in Table 7 (standard error is shown in parenthetical). Vmax is expressed as specific activity, umol herbicide product mg enzyme-1 min-1; Km expressed as mM herbicide substrate. […] The differentiation of the protein kinetics for MON-HTI and MON-HT7 were surprising because there are only four amino acid differences between MON-HT1 and MON-HT7. Specifically, MON-HT1 has the following amino acids at the indicated position: 182; F105; T112; and V273, and MON-HT7 has the following amino acids at the indicated position: L82; V105; S112; and A273.\nKinetic analysis using a non-endpoint assay was conducted at 23° C. with either quizalofop-P or 2,4-D as substrate, as detailed above for purified protein of the wild-type enzyme, MON-HT1, MON-HT13, MON-HT15, and MON-HT17."}, "[4]": {"assay_type": "physicochemical", "experimental": "A protein melting analysis was also conducted. For the protein melting determinations, purified enzyme was added to 96-well microtiter plates in standard storage buffer (30 mM Tris pH7.5, 150 mM NaCl) with or without 50 uM Fe2+ and 1.0 mM aKG. Protein unfolding was then detected with SYPRO® orange protein gel stain (Invitrogen™ catalog #S6651, Life Technologies, Grand Island, NY) in a BioRad CFX96™ Real time PCR machine (BioRad, Hercules, CA) with readings taken between 10° C. to 95° C. in 0.5° C. steps. […] In contrast, 50 uM Fe2+ and 1.0 mM aKG had little effect on the stability of any of the engineered proteins. MON-HT55, MON-HT3, MON-HT4, MON-HT6, and MON-HT10 had melting temperatures in the range of 41° C. to 48° C., which is below the melting temperature of the wild-type enzyme. MON-HT1, MON-HT2, MON-HT5, MON-HT7, MON-HT8, and MON-HT9 had melting temperatures between 58° C. and 67° C., which is 8° C. to 17° C. higher than the wild-type enzyme. For MON-HT7 and MON-HT1, the difference in melting point was 11° C. in buffer without Fe2+ and aKG and 8° C. in buffer with Fe2+ and aKG. This was surprising since there are only four amino acid differences between the two enzymes.\nA protein melting analysis was conducted as detailed above. The melting temperatures of MON-HT13, MON-HT15, and MON-HT17 was similar to the melting temperature of MON-HT1 with T1/2 in buffer in the range of 55-58° C., and with T1/2 in buffer plus Fe2+ and aKG in the range of 60-62° C."}, "[5]": {"experiment": "enzyme activity assay at 23° C. with purified enzyme", "assay_type": "biochemical", "conditions": "wild-type set at 100%", "experimental": "The enzyme activity of MON-HT protein variants with haloxyfop, fenoxaprop, fluazifop, and dichlorprop as substrates was determined using the enzyme activity assay conducted at 23° C. with purified enzyme. The activity was recorded as the maximum activity as a percentage of the wild-type enzyme's activity, which was set at 100%."}}, "note": "Where two headings read alike, the source gives them in different places."}
{"molecule": "Wild-type RdpA: wild-type RdpA enzyme from Sphingobium herbicidovorans, SEQ ID NO:60 (protein, Sphingobium herbicidovorans) MHAALSPLSQRFERIAVQPLTGVLGAEITGVDLREPLDDSTWNEILDAFHTYQVIYFPGQAITNEQHIAFSRRFGPVDPVPLLKSIEGYPEVQMIRREANESGRVIGDDWHTDSTFLDAPPAAVVMRAIDVPEHGGDTGFLSMYTAWETLSPTMQATIEGLNVVHSATRVFGSLYQAQNRRFSNTSVKVMDVDAGDRETVHPLVVTHPGSGRKGLYVNQVYCQRIEGMTDAESKPLLQFLYEHATRFDFTCRVRWKKDQVLVWDNLCTMHRAVPDYAGKFRYLTRTTVGGVRPAR", "values": [{"measurement": "MCPA Km", "setting": "[1]", "result": 100, "unit": "%"}, {"measurement": "MCPA Vmax", "setting": "[1]", "result": 100, "unit": "%"}, {"measurement": "Mecoprop Km", "setting": "[1]", "result": 100, "unit": "%"}, {"measurement": "Mecoprop Vmax", "setting": "[1]", "result": 100, "unit": "%"}, {"measurement": "activity of the wild-type enzyme at 46° C. and 47° C.", "setting": "[2]", "result": "completely inactive"}, {"measurement": "inactivation of the wild-type enzyme at 42° C. and 41° C.", "setting": "[2]", "result": 90, "unit": "% inactive"}, {"measurement": "Vmax Quizalofop", "setting": "[3]; 23° C., purified His-tagged protein, standard error in parenthetical", "result": "1.38 (−0.06) umol herbicide product mg enzyme-1 min-1"}, {"measurement": "Km", "setting": "[3]; 23° C., purified His-tagged protein, standard error in parenthetical, read-out: Km Quizalofop", "result": 270, "unit": "µM"}, {"measurement": "Vmax 2,4-D", "setting": "[3]; Table 10 series, unit as defined", "result": "0.25 (0.01) umol herbicide product mg enzyme-1 min-1"}, {"measurement": "Km", "setting": "[3]; Table 10 series, unit as defined, read-out: Km 2,4-D", "result": 130, "unit": "µM"}, {"measurement": "Vmax Quizalofop", "setting": "[3]; Table 10 series, 23° C., unit as defined", "result": "2.76 (0.11) umol herbicide product mg enzyme-1 min-1"}, {"measurement": "Km", "setting": "[3]; Table 10 series, 23° C., unit as defined, read-out: Km Quizalofop", "result": 90, "unit": "µM"}, {"measurement": "Vmax 2,4-D", "setting": "[3]; standard error in parenthetical, NDB = activity not robust enough for kinetic characterization", "result": "0.10 (−0.01) umol herbicide product mg enzyme-1 min-1"}, {"measurement": "Km", "setting": "[3]; standard error in parenthetical, NDB = activity not robust enough for kinetic characterization, read-out: Km 2,4-D", "result": 30, "unit": "µM"}, {"measurement": "Melting temp, Buffer", "setting": "[4]; Table 11 series", "result": 43, "unit": "°C"}, {"measurement": "Melting temp, Buffer plus Fe2+ and aKG", "setting": "[4]; Table 11 series", "result": 53, "unit": "°C"}, {"measurement": "T1/2, temperature where 50% of the protein was unfolded, Buffer plus Fe2+ and aKG", "setting": "[4]; buffer", "result": 50, "unit": "°C"}, {"measurement": "T1/2, temperature where 50% of the protein was unfolded, Buffer", "setting": "[4]; buffer, pH 7.5", "result": 42, "unit": "°C"}, {"measurement": "maximum activity as a percentage of the wild-type enzyme's activity, Haloxyfop", "setting": "[5]; purified enzyme", "result": 100, "unit": "%"}, {"measurement": "maximum activity as a percentage of the wild-type enzyme's activity, Dichlorprop", "setting": "[5]", "result": 100, "unit": "%"}, {"measurement": "maximum activity as a percentage of the wild-type enzyme's activity, Fenoxaprop", "setting": "[5]", "result": 100, "unit": "%"}, {"measurement": "maximum activity as a percentage of the wild-type enzyme's activity, Fluazifop", "setting": "[5]", "result": 100, "unit": "%"}]}
